T1: human EphB6 (Homo sapiens, UniProt O15197)
T1 construct: a protein of the extracellular region of each human Eph receptor fused with the SEAP protein and the His tag; made in house; host or cells: Expi293F cells
T1 sequence (O15197 32-594 limits assumed): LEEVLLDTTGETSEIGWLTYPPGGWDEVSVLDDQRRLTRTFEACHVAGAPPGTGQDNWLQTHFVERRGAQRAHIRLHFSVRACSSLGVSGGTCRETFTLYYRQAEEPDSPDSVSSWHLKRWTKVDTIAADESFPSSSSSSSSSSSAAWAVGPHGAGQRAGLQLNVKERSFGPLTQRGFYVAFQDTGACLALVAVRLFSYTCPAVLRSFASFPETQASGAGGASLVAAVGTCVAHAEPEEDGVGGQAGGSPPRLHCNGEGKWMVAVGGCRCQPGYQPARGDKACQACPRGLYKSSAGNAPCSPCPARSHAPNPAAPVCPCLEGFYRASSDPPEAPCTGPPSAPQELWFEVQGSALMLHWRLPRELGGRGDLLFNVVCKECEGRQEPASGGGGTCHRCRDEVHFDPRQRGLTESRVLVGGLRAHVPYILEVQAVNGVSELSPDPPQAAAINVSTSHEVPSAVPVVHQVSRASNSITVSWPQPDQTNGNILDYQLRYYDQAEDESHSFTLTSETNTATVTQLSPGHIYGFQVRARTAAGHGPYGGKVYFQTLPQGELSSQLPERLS

T2: human EphA10 (Homo sapiens, UniProt Q5JZY3)
T2 construct: a protein of the extracellular region of each human Eph receptor fused with the SEAP protein and the His tag; made in house; host or cells: Expi293F cells (culture supernatant)
T2 sequence (Q5JZY3 34-565 limits assumed): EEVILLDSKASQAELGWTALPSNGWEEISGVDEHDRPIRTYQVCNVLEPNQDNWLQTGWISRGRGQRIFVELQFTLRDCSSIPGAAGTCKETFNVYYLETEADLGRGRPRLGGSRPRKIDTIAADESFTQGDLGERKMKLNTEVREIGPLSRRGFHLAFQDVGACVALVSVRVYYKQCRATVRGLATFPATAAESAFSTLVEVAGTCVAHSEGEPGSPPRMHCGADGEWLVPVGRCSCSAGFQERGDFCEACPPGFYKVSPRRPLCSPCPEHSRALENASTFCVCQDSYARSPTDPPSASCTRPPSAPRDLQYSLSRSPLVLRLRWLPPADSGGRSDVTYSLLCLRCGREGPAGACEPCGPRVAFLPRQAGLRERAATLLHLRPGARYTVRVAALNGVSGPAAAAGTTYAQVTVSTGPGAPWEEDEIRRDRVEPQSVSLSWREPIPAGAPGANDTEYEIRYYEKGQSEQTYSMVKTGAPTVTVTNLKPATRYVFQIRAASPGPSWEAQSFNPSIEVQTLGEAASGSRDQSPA

T3: human EphA6 (Homo sapiens, UniProt Q9UF33)
T3 construct: a protein of the extracellular region of each human Eph receptor fused with the SEAP protein and the His tag; made in house; host or cells: Expi293F cells (culture supernatant)
T3 sequence (Q9UF33 23-550 limits assumed): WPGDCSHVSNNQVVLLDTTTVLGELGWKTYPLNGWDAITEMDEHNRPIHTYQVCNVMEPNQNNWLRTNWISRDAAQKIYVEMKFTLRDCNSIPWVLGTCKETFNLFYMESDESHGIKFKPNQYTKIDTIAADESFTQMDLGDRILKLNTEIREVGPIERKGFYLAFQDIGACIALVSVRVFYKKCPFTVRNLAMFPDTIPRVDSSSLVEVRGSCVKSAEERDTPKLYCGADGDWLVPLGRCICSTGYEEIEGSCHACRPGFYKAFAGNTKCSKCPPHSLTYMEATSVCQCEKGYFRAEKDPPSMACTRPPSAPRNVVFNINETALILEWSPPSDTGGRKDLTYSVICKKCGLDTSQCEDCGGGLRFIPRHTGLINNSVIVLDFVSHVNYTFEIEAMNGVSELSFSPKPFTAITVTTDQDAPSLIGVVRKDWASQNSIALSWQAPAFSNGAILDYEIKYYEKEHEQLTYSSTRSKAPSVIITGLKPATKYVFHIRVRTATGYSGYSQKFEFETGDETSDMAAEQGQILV


Tests used:
Assay in all cases: Selectivity ELISA of humanized antibodies for human Eph receptor
Type in all cases: binding
Conditions in all cases: coated protein 1 nM
[1] = molecular target: T1, human EphB6
Summary of the method: (§1)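 Read-out is A450 after TMB development stopped with 1N H2SO4. Plates bore anti-His-captured human Eph extracellular region-SEAP-His proteins at 1 nM final, made in Expi293F cells. Humanized antibody binding ran 1 h at room temperature before HRP-labeled anti-IgG detection.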

[2] = molecular target: T2, human EphA10
Summary of the method: as §1

[3] = molecular target: T3, human EphA6
Summary of the method: as §1

Row | hEphB6-SEAP-: absorbance at 450 nm, percentage with respect to hEphA4-SEAP-His as 100% [1] | hEphA10-SEAP-: absorbance at 450 nm, percentage with respect to hEphA4-SEAP-His as 100% [2] | hEphA6-SEAP-: absorbance at 450 nm, percentage with respect to hEphA4-SEAP-His as 100% [3] | Molecule
1 | 5.3% | 5.3% | 9.2% | 71 (antibody, V domains shown, synthetic humanized antibody heavy chain variable region sequence; synthetic humanized antibody light chain variable region sequence) VH: QIQLVQSGSELKKPGASVKVSCKASGYTFTDYSMHWVRQAPGQGLKWMGWINTETGEPTYAQGFTGRFVFSLDTSVSTAYLQISSLKAEDTAVYYCARIPLYYYGSRYWYFDVWGQGTTVTVSS VL: EIVMTQSPATLSVSPGERATLSCRASENIYRNLAWYQQKPGQSPRLLIYAATNLADGIPARFSGSGSGTEYTLTISSLQSEDFAVYYCQHFWGTPWTFGQGTKVEIK
2 | 5.2% | 5.2% | 10.8% | 140 (antibody, V domains shown, synthetic humanized antibody heavy chain variable region sequence; synthetic humanized antibody light chain variable region sequence) VH: QVQLVQSGSELKKPGASVKVSCKASGYTFTDYSMHWVRQAPGQGLKWMGWINTETGEPTYAQGFTGRFVFSLDTSVSTAYLQISSLKAEDTAVYYCARIPLYYYGSRYWYFDVWGQGTTVTVSS VL: DIQMTQSPSSLSASVGDRVTITCRASENIYRNLAWYQQKPGKAPKLLVYAATNLADGVPSRFSGSGSGTDYTLTISSLQPEDFATYYCQHFWGTPWTFGQGTKVEIK
3 | 5.0% | 5.0% | 10.2% | 138 (antibody, V domains shown, synthetic humanized antibody heavy chain variable region sequence; synthetic humanized antibody light chain variable region sequence) VH: QIQLVQSGSELKKPGASVKVSCKASGYTFTDYSMHWVRQAPGQGLKWMGWINTETGEPTYAQGFTGRFVFSLDTSVSTAYLQISSLKAEDTAVYYCARIPLYYYGSRYWYFDVWGQGTTVTVSS VL: DIQMTQSPSSLSASVGDRVTITCRASENIYRNLAWYQQKPGKAPKLLVYAATNLADGVPSRFSGSGSGTDYTLTISSLQPEDFATYYCQHFWGTPWTFGQGTKVEIK
4 | 5.9% | 5.5% | 10.0% | 139 (antibody, synthetic humanized antibody heavy chain variable region sequence; synthetic humanized antibody light chain variable region sequence; synthetic antibody constant region sequence) VH: QVQLVQSGSELKKPGASVKVSCKASGYTFTDYSMHWVRQAPGQGLEWMGWINTETGEPTYAQGFTGRFVFSLDTSVSTAYLQISSLKAEDTAVYYCARIPLYYYGSRYWYFDVWGQGTTVTVSS VL: DIQMTQSPSSLSASVGDRVTITCRASENIYRNLAWYQQKPGKAPKLLVYAATNLADGVPSRFSGSGSGTDYTLTISSLQPEDFATYYCQHFWGTPWTFGQGTKVEIK ASTKGPSVFPLAPSSRSTSESTAALGCLVKDYFPEPVTVSWNSGALTSGVHTFPAVLQSSGLYSLSSVVTVPSSNFGTQTYTCNVDHKPSNTKVDKTVERKSCVECPPCPAPPAAAPSVFLFPPKPKDTLMISRTPEVTCVVVDVSHEDPEVQFNWYVDGVEVHNAKTKPREEQFNSTFRVVSVLTVVHQDWLNGKEYKCKVSNKGLPAPIEKTISKTKGQPREPQVYTLPPSREEMTKNQVSLTCLVKGFYPSDIAVEWESNGQPENNYKTTPPMLDSDGSFFLYSKLTVDKSRWQQGNVFSCSVMHEALHNHYTQKSLSLSPG
5 | 5.6% | 5.6% | 7.4% | 73 (antibody, V domains shown, synthetic humanized antibody heavy chain variable region sequence; synthetic humanized antibody light chain variable region sequence) VH: QIQLVQSGSELKKPGASVKVSCKASGYTFTDYSMHWVRQAPGQGLKWMGWINTETGEPTYADDFKGRFVFSLDTSVSTAYLQISSLKAEDTAVYYCARIPLYYYGSRYWYFDVWGQGTTVTVSS VL: EIVMTQSPATLSVSPGERATLSCRASENIYRNLAWYQQKPGQSPRLLIYAATNLADGIPARFSGSGSGTEYTLTISSLQSEDFAVYYCQHFWGTPWTFGQGTKVEIK
6 | 5.5% | 5.3% | 9.8% | 96 (antibody, V domains shown, constant regions without entry; synthetic humanized antibody light chain variable region sequence; synthetic humanized antibody heavy chain variable region sequence) VL: EIVMTQSPATLSVSPGERATLSCRASENIYRNLAWYQQKPGQSPRLLIYAATNLADGIPARFSGSGSGTEYTLTISSLQSEDFAVYYCQHFWGTPWTFGQGTKVEIK VH: QVQLVQSGSELKKPGASVKVSCKASGYTFTDYSMHWVRQAPGQGLKWMGWINTETGEPTYADDFKGRFVFSLDTSVSTAYLQISSLKAEDTAVYYCARIPLYYYGSRYWYFDVWGQGTTVTVSS
7 | 5.4% | 5.2% | 9.0% | 141 (antibody, V domains shown, synthetic humanized antibody heavy chain variable region sequence; synthetic humanized antibody light chain variable region sequence) VH: QVQLVQSGSELKKPGASVKVSCKASGYTFTDYSMHWVRQAPGQGLEWMGWINTETGEPTYADDFKGRFVFSLDTSVSTAYLQISSLKAEDTAVYYCARIPLYYYGSRYWYFDVWGQGTTVTVSS VL: DIQMTQSPSSLSASVGDRVTITCRASENIYRNLAWYQQKPGKAPKLLVYAATNLADGVPSRFSGSGSGTDYTLTISSLQPEDFATYYCQHFWGTPWTFGQGTKVEIK
8 | 4.7% | 4.5% | 7.0% | 95 (antibody, V domains shown, constant regions without entry; synthetic humanized antibody light chain variable region sequence; synthetic humanized antibody heavy chain variable region sequence) VL: EIVMTQSPATLSVSPGERATLSCRASENIYRNLAWYQQKPGQSPRLLIYAATNLADGIPARFSGSGSGTEYTLTISSLQSEDFAVYYCQHFWGTPWTFGQGTKVEIK VH: QVQLVQSGSELKKPGASVKVSCKASGYTFTDYSMHWVRQAPGQGLEWMGWINTETGEPTYADDFKGRFVFSLDTSVSTAYLQISSLKAEDTAVYYCARIPLYYYGSRYWYFDVWGQGTTVTVSS
